The values below are quoted from earlier work in article PMC6858539.

Like-named read-outs stand apart in the source and are kept apart here.

Data set [1] addresses RodZ nascent chain on ribosome (RNC-RodZ) (Escherichia coli) (UniProt P27434).
For data set [2] the target is unchanged. This is another data set of the same source.

Chain of UniProt P27434 (P27434 whole entry): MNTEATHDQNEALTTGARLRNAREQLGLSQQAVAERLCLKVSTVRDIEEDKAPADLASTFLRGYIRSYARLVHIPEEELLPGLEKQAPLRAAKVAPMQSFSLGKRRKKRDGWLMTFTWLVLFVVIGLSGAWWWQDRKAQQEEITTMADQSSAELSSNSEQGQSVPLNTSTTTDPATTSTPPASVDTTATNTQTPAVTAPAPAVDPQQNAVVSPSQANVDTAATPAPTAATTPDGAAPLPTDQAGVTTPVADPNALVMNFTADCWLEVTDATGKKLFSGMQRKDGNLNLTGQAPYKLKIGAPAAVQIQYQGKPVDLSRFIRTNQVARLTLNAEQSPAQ

For orientation: Kd means the equilibrium constant for the complex coming apart. With SRP (from UniProt P0AGD7), the Kd in data set [1] is 24 nM.

Turning to SecA (from UniProt P10408), the dissociation constant (Kd) in data set [2] is below 1 nM.
